Test results: paper PMC4019675 (Nature cell biology, 2013)

T1: FtsA (wild-type, untagged) (E. coli (PCR amplified from MG1655 …, UniProt P0ABH0 1-420))
T1 sequence (looked up): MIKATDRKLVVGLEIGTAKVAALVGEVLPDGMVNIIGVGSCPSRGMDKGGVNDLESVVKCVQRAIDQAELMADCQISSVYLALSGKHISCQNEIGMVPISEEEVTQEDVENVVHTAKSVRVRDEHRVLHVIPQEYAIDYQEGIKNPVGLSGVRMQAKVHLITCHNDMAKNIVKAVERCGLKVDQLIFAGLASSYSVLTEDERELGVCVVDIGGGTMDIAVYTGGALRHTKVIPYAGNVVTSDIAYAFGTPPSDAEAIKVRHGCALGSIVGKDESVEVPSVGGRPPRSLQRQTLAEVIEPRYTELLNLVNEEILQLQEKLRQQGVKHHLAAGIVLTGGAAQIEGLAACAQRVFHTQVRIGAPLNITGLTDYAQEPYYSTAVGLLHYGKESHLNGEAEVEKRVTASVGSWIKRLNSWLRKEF

B1: FtsZ (untagged) (natural protein, UniProt P0A9A6 1-383, looked up)
chain: MFEPMELTNDAVIKVIGVGGGGGNAVEHMVRERIEGVEFFAVNTDAQALRKTAVGQTIQIGSGITKGLGAGANPEVGRNAADEDRDALRAALEGADMVFIAAGMGGGTGTGAAPVVAEVAKDLGILTVAVVTKPFNFEGKKRMAFAEQGITELSKHVDSLITIPNDKLLKVLGRGISLLDAFGAANDVLKGAVQGIAELITRPGLMNVDFADVRTVMSEMGYAMMGSGVASGEDRAEEAAEMAISSPLLEDIDLSGARGVLVNITAGFDLRLDEFETVGNTIRAFASDNATVVIGTSLDPDMNDELRVTVVATGIGMDKRPEITLVTNKQVQQPVMDRYQQHGMAPLTQEQKPVAKVVNDNAPQTAKEPDYLDIPAFLRKQAD

Legend:
[1] = target: T1, FtsA (wild-type, untagged); experiment: co-sedimentation
FtsZ (untagged) = target: B1; experiment: co-sedimentation

Row | binding result [1] | binding result (FtsZ (untagged)) | Binder
1 | binds |  | B1
2 |  | binds | His-Δ22-ZipA (domain or fragment) not shown
